# From patent US20210032294A1, “MODIFIED PlySs2 LYSINS AND USES THEREOF” (CONTRAFECT CORPORATION, priority 2018, published 2021)
# Entries after “also recorded” stand apart in the source; their conditions may differ.
# B1: pp296: Modified PlySs2 lysin, SEQ ID NO: 6: L92W, V104S, V128T, Y137S, Y164K, N184D, S198Q (protein)
# chain: MTTVNEALNNVRAQVGSGVSVGNGECYALASWYERMISPDATVGLGAGVGWVSGAIGDTISAKNIGSSYNWQANGWTVSTSGPFKAGQIVTWGATPGNPYGHVSIVEAVDGDRLTILEQNYGGKRYPTRNYYSAASSRQQVVHYITPPGTVAQSAPNLAGSRSKRETGTMTVTVDALNVRRAPDTSGEIVAVYKRGEQFDYDTAIIDVNGYAWVSYIGGSGKRNYVATGATKDGKRFGNAWGTFK
# How the values were obtained:
# [1] = system: S. aureus isolate CFS-860; assay: Mouse neutropenic thigh infection (MNTI) model; format: in vivo, Staphylococcus aureus
# Procedure: The efficacy of four modified lysin polypeptides was compared to wild-type PlySs2 in a dose response (0-60 mg/kg) assay using a mouse neutropenic thigh infection (MNTI) model.
# Bacterial inoculum was generated by allowing bacterial cells to grow to exponential phase in MHB until they reached an optical density (OD) of about 0.5 at 600 nm. The bacterial cells were thoroughly washed, resuspended in 0.9% sodium chloride USP, and diluted to an equivalent of 3.9×10^8 colony forming units (CFU)/mL. Cells were further diluted as described below in 0.9% sodium chloride USP and maintained on wet ice.
# Neutropenia was induced in female BALB/cByJ mice (5-7 weeks, Jackson Laboratories) by intraperitoneal (ip) administration of 150 mg/kg and 100 mg/kg of cyclophosphamide 4 and 1 days prior to inoculation of bacteria, respectively. Bacterial inoculum (S. aureus isolate CFS-860, 100 μl of 10^7 CFU/ml solution) was injected intramuscularly (IM) into both posterior thighs of each mouse. […] At 2 hours post-inoculation (Early Control) and 24 hours post-treatment initiation, animals were euthanized (CO2 asphyxiation), and the thighs were aseptically removed. Each thigh was weighed, placed into 4 ml sterile saline and homogenized in 7 ml lysing tubes using a Precellys24 high-throughput tissue homogenizer (Bertin Corp, Rockville, Md.). Dilutions of homogenate were plated on tryptic soy blood agar plates (Becton Dickinson) and incubated at 37° C. overnight in a CO2 incubator. Bacterial burden was enumerated and expressed as log 10 CFU/g of thigh weight and compared to control animals harvested at 2 hours post infection (Early Control) and animals treated with vehicle (Late Control).
# The data representing mouse thigh bacterial burden are depicted in FIG. 2. The upper dot on the y-axis is vehicle alone, and the lower dot on the y-axis is the Early Control. pp1149 is in fact also a wild-type lysin over-expressed and purified in the laboratory along with the other modified lysin polypeptides and used as an additional positive control.
# [2] = Single 2-hour intravenous infusion toxicity study in rats; format: in vivo, Sprague Dawley rats
# Description: The objectives of this study were to evaluate the potential toxicity and toxicokinetic profile of pp296 when administered as a single 2-hour intravenous infusion to Sprague Dawley rats, as well as to evaluate the recovery, persistence, or progression of any effects following a minimum of a 3-day recovery period.
# The following Tables 9 and 10 present the study group arrangement. There were 5 male and 5 female rats per group in Phase A.
# For the main (Phase A) and toxicokinetic (Phase B) phases, animals received a single 2-hour intravenous infusion. Phase A animals received a single 2-hour intravenous infusion at escalating doses until the maximum tolerated dose (MTD) was determined up to a high dose of 100 mg/kg. A minimum of 3 days of observation was allowed between each pp296 dose. Animals assigned to Groups 2 through 5 were necropsied approximately 72 hours following the end of dose administration. ^aThe vehicle was 20 mM L-histidine, 5% D-sorbitol (w/v), pH 7.0 (±0.1).
# The following parameters and endpoints were evaluated in this study: clinical signs, body weight, body weight gain, food consumption, clinical pathology parameters (hematology, coagulation, serum chemistry, and urinalysis), gross necropsy findings, and histopathologic examinations.
# [3] = 7-day repeated 2-hour infusion toxicity study in rats; format: in vivo, Sprague Dawley rats; settings: rats, 0.5, 2.5, or 10 mg/kg/day, 7 consecutive days
# Procedure: The objective of this study was to evaluate the potential toxicity and toxicokinetic profile of modified lysin polypeptide pp296 when administered daily by 2-hour infusion to Sprague Dawley rats for 7 consecutive days.
# Experimental procedures, animals and treatment are summarized below in Table 11.
# All surviving animals were submitted for necropsy on Day 8 (Terminal Euthanasia). Necropsies were performed and organ weights were collected by Testing Facility personnel. Statistical analysis of organ weight data was performed by the testing facility engaged on a fee-for-service commercial basis. Tissues required for microscopic evaluation were trimmed, processed routinely, embedded in paraffin, and stained with hematoxylin and eosin by Charles River Laboratories Ashland, LLC. Microscopic evaluation was conducted by a board-certified veterinary pathologist on select protocol-specified tissues from all animals in Groups 1 through 4 and all gross lesions from all animals. Tissues were evaluated by light microscopy.
molecule,measurement,setting,value
B1,Performance in MNTI at lower doses,[1]; 0.5 mg/kg,performed comparably to wild type
same,Bactericidal efficacy (thigh bacterial burden) versus wild type,"[1]; neutropenic BALB/cByJ mice, intravenous, dose response, 24 hours",activity comparable to wild-type PlySs2 lysin
same,Bactericidal efficacy at the lowest dose used,"[1]; neutropenic mice, intravenous, 5 mg/kg",comparable to that of wild-type PlySs2 lysin
same,No-observed-adverse-effect level (NOAEL),[2]; single 2-hour intravenous infusion,> 100 mg/kg
same,Tolerability / adverse findings,"[2]; single intravenous infusion, 5, 25, 50, and 100 mg/kg",well tolerated with no adverse findings at all doses; also recorded: well-tolerated with no adverse findings at all doses
same,Toxicity findings,[3]; 2-hour infusion,"No toxicity was found; also recorded: no pp296-related gross, microscopic, or organ weight findings"
same,Unscheduled deaths,[3],no unscheduled deaths
